This is an account of results in publication PMC7275041, “m5C modification of mRNA serves a DNA damage code to promote homologous recombination”.

The data set addresses T1, RAD52 (hRAD52) (human, UniProt P43351 1-418).
T1 sequence: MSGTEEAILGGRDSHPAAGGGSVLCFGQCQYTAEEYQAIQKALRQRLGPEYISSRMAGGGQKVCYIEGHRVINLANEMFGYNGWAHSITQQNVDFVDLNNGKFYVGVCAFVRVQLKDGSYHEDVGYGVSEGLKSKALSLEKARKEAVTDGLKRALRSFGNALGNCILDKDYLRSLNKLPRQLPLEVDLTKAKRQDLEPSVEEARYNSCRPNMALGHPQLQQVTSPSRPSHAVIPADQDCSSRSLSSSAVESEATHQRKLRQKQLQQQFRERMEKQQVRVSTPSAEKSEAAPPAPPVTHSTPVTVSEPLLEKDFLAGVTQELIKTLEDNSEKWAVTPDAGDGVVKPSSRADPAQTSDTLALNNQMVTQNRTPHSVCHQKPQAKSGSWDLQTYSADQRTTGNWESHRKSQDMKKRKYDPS
The data set is described as follows: EMSA; higher efficiency than unmodified N1; 1 mM Mg2+; source data at top RAD52 level (360, unit not shown): 97.3 and 99.2; EMSA: 25 mM Tris-HCl pH 7.5, 1 mM MgCl2, 1 mM DTT, 50 ug/mL BSA, 50 or 300 mM NaCl and/or 0.5% NP-40, 15 min 37 C, 6% PAGE-TBE at 4 C; pull-down: Pierce magnetic RNA-protein pull-down kit. To be noted: protein: recombinant; tags: C-terminal 6xHis (pET28b); label: 5' maleimide-IR800 on oligo 1 (DNA); blunt.

B1: 50-bp m5C DNA:RNA hybrid (oligo 1/oligo 3) (DNA:RNA)
DNA: ATCATCACCATAACGTCGATGTATCAACTTCGATTAGTCACACCAATTAA
RNA: UUAAUUGGUGUGACUAAUCGAAGUUGAUACAUCGACGUUAUGGUGAUGAU
modifications: m5C at every C of the RNA strand (positions 14, 19, 30, 33, 36; five m5C)
For the molecule B1, the binding result is “binds”.
